Experimental data reported in the supplement of paper PMC10201428.
± gives the standard deviation of the averaged measurements.

Test system: VchCAST RNA-guided transposition machinery (E. coli BL21(DE3) host, lacZ target)
Test: relative integration efficiency (T-RL orientation) vs wild-type transposon end (log2 (normalized fold change)); transposon end mutated: right end (5 bp flank + 75 bp right end); higher = more efficient transposition
Description: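 Pooled, barcoded VchCAST (Tn6677) mini-transposon donor libraries; each variable transposon-end sequence sits in a fixed pDonor mini-transposon context (10-bp barcode and cargo not included). Left- or right-end libraries were co-transformed with pEffector (TniQ-Cascade, TnsABC, lacZ crRNA, T7, 0.1 mM IPTG) into E. coli BL21(DE3) and grown 18 h at 37 C. T-LR and T-RL junction amplicons were sequenced; output/input barcode fold change was normalised to the mean of four wild-type barcodes and log2-transformed. Two biological replicates; zero-count/undetected variants carry floor values (-10 / -15), censored here. Barcode uncoupling by PCR recombination adds noise.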

| Sequence | relative integration efficiency (log2) |
| --- | --- |
| ACATTTGAACTTACAACCATAAAATGATAATTACACCCATAAATTGATAATTATCACACCCATAAATTGATATTGCCTCTGATCATAGTCAGACCAACATTGCTACGACCCGTATTCGCACCGACAC | -5.07 ± 0.78 |
| ACATTTGTAAAAAAAACCATACGTTGATTTTACGAAACCATACGCTGAAATAAAAACAACCATACCTTGAAATTGCTTATGATCATAGTCAGACCAACATTGCTACGACCCGTATTCGCACCGACAC | -8.13 ± 1.3 |
| ACATTTGTAAAAAAAACCATACGTTGATTTTACGAAACCATACGCTGAAATAATCACAACCATAAATTGATATTGCCTCTGATCATAGTCAGACCAACATTGCTACGACCCGTATTCGCACCGACAC | -6.87 ± 0.53 |
| ACATTTGTAAAAAAAACCATACGTTGATTTTACGAAACCATACGCTGAAATAATCACAACCATACCTTGAAATTGCCTCTGATCATAGTCAGACCAACATTGCTACGACCCGTATTCGCACCGACAC | -7.16 ± 0.43 |
| ACATTTGTAAAAAAAACCATACGTTGATTTTACGAAACCATACGCTGAAATAATCACACCCATAAATTGAAATTGCCTCTGATCATAGTCAGACCAACATTGCTACGACCCGTATTCGCACCGACAC | -5.81 ± 0.093 |
| ACATTTGTAAAAAAAACCATACGTTGATTTTACGAAACCATACGCTGAAATAATCACACCCATAAATTGATATTGCCTCTGATCATAGTCAGACCAACATTGCTACGACCCGTATTCGCACCGACAC | -7.11 ± 0.15 |
| ACATTTGTTAATAAAACCATACGTTGATTTTACGAAACCATACGCTGAAATAATCACACCCATAAATTGATATTGCCTCTGATCATAGTCAGACCAACATTGCTACGACCCGTATTCGCACCGACAC | -6.57 ± 0.26 |
| ACATTTGTTCAACCATAAAATGATAATTACACCCATAAATTGATAATTATCACACCCATAAATTGATATTGCCTCTGATCATAGTCAGACCAACATTGCTACGACCCGTATTCGCACCGACACTGAC | -7.3 ± 0.12 |
| ACATTTGTTCATACAACCCTAAAATGATAATTACACCCATAAATTCATAATTATCACCCCCAATTTAACTATAACGCTCTGATCATAGTCAGACCAACATTGCTACGACCCGTATTCGCACCGACAC | -5.3 ± 0.43 |
| ACATTTGTTGAAAAAACCATACGTTGATTTTACGAAACCATACGCTGAAATAATCACACCCATAAATTGATATTGCCTCTGATCATAGTCAGACCAACATTGCTACGACCCGTATTCGCACCGACAC | -6.48 ± 0.15 |
| ACATTTGTTGATAACCAACGCCCCGTCGCCGGCACAAACGCCCGGTCGCCGGCGACACAAACGCCCGGTCGCGGTAAGAGGATCATAGTCAGACCAACATTGCTACGACCCGTATTCGCACCGACAC | -6.24 ± 0.19 |
| ACATTTGTTGATAACCAACGCCCCGTCGCCGGCCACCCATAAATTGATAATTATCACACCCATAAATTGATATTGCCTCTGATCATAGTCAGACCAACATTGCTACGACCCGTATTCGCACCGACAC | -7.56 ± 0.64 |
| ACATTTGTTGATACAACACGCCCCGTCGCCGGCACAAACGCCCGGTCGCCGGCGACACAAACGCCCGGTCGCGGTAAGAGGATCATAGTCAGACCAACATTGCTACGACCCGTATTCGCACCGACAC | -6.42 ± 0.17 |
| ACATTTGTTGATACAACCATAAAATGATAATTAATAATTATTTATAATCAGCAACACCCATAAATTGATAATTATCACACCCATAAATTGATATTGCCTCTGATCATAGTCAGACCAACATTGCTAC | -3.61 ± 0.38 |
| ACATTTGTTGATACAACCATAAAATGATAATTAATAATTATTTATAATCAGCAACTTAACCACAAAACACCCATAAATTGATAATTAACAAAACACCCATAAATTGATATTGCTGTGAATCGAGTAT | -5.86 ± 0.28 |
| ACATTTGTTGATACAACCATAAAATGATAATTAATAATTATTTATAATCAGCAACTTAACCACAAAACACCCATAAATTGATAATTAACAAACACCCATAAATTGATATTGCCTCTGATCATAGTCA | -5.35 ± 0.69 |

| Sequence | relative integration efficiency (log2) |
| --- | --- |
| ACATTTGTTGATACAACCATAAAATGATAATTAATAATTATTTATAATCAGCAACTTAACCACAAAACACCCATAAATTGATAATTAACACACCCATAAATTGATATTGCCTCTGATCATAGTCAGA | -5.33 ± 0.24 |
| ACATTTGTTGATACAACCATAAAATGATAATTAATAATTATTTATAATCAGCAACTTAACCACAAAACACCCATAAATTGATAATTATCACACCCATAAATTGATATTGCCTCTGATCATAGTCAGA | -4.6 ± 1 |
| ACATTTGTTGATACAACCATAAACGTCGCCGGCACAAACGCCCGGTCGCCGGCGACACAAACGCCCGGTCGCGGTAAGAGGATCATAGTCAGACCAACATTGCTACGACCCGTATTCGCACCGACAC | -6.69 ± 0.61 |
| ACATTTGTTGATACAACCATACCCGGATAATTACACCCATACCGGGATAATTATCACACCCATACCGGGATATTGCCTCTGATCATAGTCAGACCAACATTGCTACGACCCGTATTCGCACCGACAC | -6.7 ± 0.28 |
| ACATTTGTTGATACAACCATACCCGTATAATTACACCCATACCGGTATAATTATCACACCCATACCGGTATATTGCCTCTGATCATAGTCAGACCAACATTGCTACGACCCGTATTCGCACCGACAC | -8.04 ± 1.3 |
| ACATTTGTTGATACAACCATATTTACATAATTACACCCATATTAACATAATTATCACACCCATATTAACATATTGCCTCTGATCATAGTCAGACCAACATTGCTACGACCCGTATTCGCACCGACAC | -7.03 ± 0.43 |
| ACATTTGTTGATACAACCATCCCCGTCGCCGGCACAAACGCCCGGTCGCCGGCGACACAAACGCCCGGTCGCGGTAAGAGGATCATAGTCAGACCAACATTGCTACGACCCGTATTCGCACCGACAC | -7.485 ± 0.063 |
| ACATTTGTTGATACAACCCGCCCCGTCGCCGGCACAAACGCCCGGTCGCCGGCGACACAAACGCCCGGTCGCGGTAAGAGGATCATAGTCAGACCAACATTGCTACGACCCGTATTCGCACCGACAC | -8.51 ± 0.73 |
| ACATTTGTTGATACCCAACGCCCCGTCGCCGGCACAAACGCCCGGTCGCCGGCGACACAAACGCCCGGTCGCGGTAAGAGGATCATAGTCAGACCAACATTGCTACGACCCGTATTCGCACCGACAC | -6.49 ± 0.44 |
| ACATTTGTTGATAGTTGGTATTTTACTATTAATCACCCATAAATTGATAATTATCACACCCATAAATTGATATTGCCTCTGATCATAGTCAGACCAACATTGCTACGACCCGTATTCGCACCGACAC | -7.24 ± 1 |
| ACATTTGTTGATATAATTATCATTTTATGGTTGCAACCATAAAATGATAATTATCATAATTATCATTTTATGGTTGCTCTGATCATAGTCAGACCAACATTGCTACGACCCGTATTCGCACCGACAC | -2.78 ± 0.3 |
| ACATTTGTTGATATAATTATCATTTTATGGTTGTAATTATCATTTTATGGTTGTCACAACCATAAAATGATAATTACTCTGATCATAGTCAGACCAACATTGCTACGACCCGTATTCGCACCGACAC | -6.264 ± 0.019 |
| ACATTTGTTGATATGTCAACCATAAAATGATAATTACACCCATAAATTGATAATTATCACACCCATAAATTGATATTGCCTCTGATCATAGTCAGACCAACATTGCTACGACCCGTATTCGCACCGA | -2.13 ± 0.23 |
| ACATTTGTTGATATGTTGCAACCATAAAATGATAATTACACCCATAAATTGATAATTATCACACCCATAAATTGATATTGCCTCTGATCATAGTCAGACCAACATTGCTACGACCCGTATTCGCACC | -6.84 ± 0.38 |
| ACATTTGTTGATGCAACCATAAAATGATAATTAATAATTATTTATAATCAGCAACTTAACCACAAAACACCCATAAATTGATAATTAACAAAACACCCATAAATTGATATTGCCTCTGATCATAGTC | -4.62 ± 0.92 |
| ACATTTGTTGCAACCATAAAATGATAATTACACCCATAAATTGATAATTATCACACCCATAAATTGATATTGCCTCTGATCATAGTCAGACCAACATTGCTACGACCCGTATTCGCACCGACACTGA | -7.1 ± 0.91 |
